This is an account of results in the supplement of paper PMC11780869.

In this data set the test system is Bacillus subtilis. The data set can be described thus: cleaved RNA product abundance (RNA/gDNA barcode ratio) relative to median wild-type variant (ratio to wild type); higher = more accumulation of the downstream cleavage product. The following applies: experiment (reporter, strain, medium): exp 8a: truncated aprE reporter, strain BJT201 with 2% xylose (RNase J1 expressed); cleavage site: glnRA (positions -5 to +31 mutated). Summed up:
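B. subtilis strains with chromosomally integrated reporter mRNAs (truncated aprE or tetM) holding barcoded, mutagenized RNase Y cleavage-site windows grew in LB at 37°C from OD600 0.0003 to 0.3. Cleaved product abundance is each construct's RNA:gDNA barcode ratio, scaled to the median construct with the unmutated site. It came from sequencing barcodes of gel-selected, reverse-transcribed cleaved RNA and of genomic DNA.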
Turning to “CGACATGTCCCGCTTCTTTCATTATTCCGTTAGCAACTGTTTTGCTATATTCATTTACCTTTTAAGAGGAGGAAT”, the “cleaved RNA product abundance” value worked out at 0.669.
On to “CGACATGTCCCGCTTCTTTCATTATTCCGTTAGCAACTGTTTTGCTATCTACATTTACCTTTTAAGAGGAGGAAT”, for which the “cleaved RNA product abundance” value was 0.167.
In the case of “CGACATGTCCCGCTTCTTTCATTATTCCGTTAGCAACTGTTTTGCTATGTACATTTACCTTTTAAGAGGAGGAAT”, the “cleaved RNA product abundance” value came out at 0.184.
The value for “CGACATGTCCCGCTTCTTTCATTATTCCGTTAGCAACTGTTTTGCTATTTACATTTACCTTTTAAGAGGAGGAAT” was 0.131.
The value for “CGACATGTCCCGCTTCTTTCATTATTCCGTTAGCAACTGTTTTGCTCTATACATTTACCTTTTAAGAGGAGGAAT” was 0.354; that for “CGACATGTCCCGCTTCTTTCATTATTCCGTTAGCAACTGTTTTGCTGTATACATTTACCTTTTAAGAGGAGGAAT” was 0.298; that for “CGACATGTCCCGCTTCTTTCATTATTCCGTTAGCAACTGTTTTGCTTTATACATTTACCTTTTAAGAGGAGGAAT” was 0.401.
Regarding “CGACATGTCCCGCTTCTTTCATTATTCCGTTAGCAACTGTTTTGGTATATACATTTACCTTTTAAGAGGAGGAAT”, the “cleaved RNA product abundance” value amounted to 0.304.
The value for “CGACATGTCCCGCTTCTTTCATTATTCCGTTAGCAACTGTTTTGTTATATACATTTACCTTTTAAGAGGAGGAAT” was 0.541.
The value for “CGACATGTCCCGCTTCTTTCATTATTCCGTTAGCAACTGTTTTTCTATATACATTTACCTTTTAAGAGGAGGAAT” was 0.62.
The same measure for “CGACATGTCCCGCTTCTTTCATTATTCCGTTAGCAACTTTTTTGCTATATACATTTACCGTTTAAGAGGAGGAAT”: 2.31; for “CGACATGTCCCGCTTCTTTCATTATTCCGTTAGCAACTTTTTTGCTATATACATTTACCTTTTAAGAGGAGGAAT”: 2.24.
As for “CGACATGTCCCGCTTCTTTCATTATTCCGTTAGCAACTTTTTTGCTATATACTTTTACCTTTTAAGAGGAGGAAT”, the “cleaved RNA product abundance” value was found to be 0.558.
The value for “CGACATGTCCCGCTTCTTTCATTATTCCGTTAGCAAGTGTTTTGCTATATACATTTACCTTTTAAGAGGAGGAAT” was 1.46; that for “CGACATGTCCCGCTTCTTTCATTATTCCGTTAGCAATTGTTATGGTATATACAATTATCTTTTAAGAGGAGGAAT” was 0.256; that for “CGACATGTCCCGCTTCTTTCATTATTCCGTTAGCAATTGTTTTGCTATATACATTTACCTTTTAAGAGGAGGAAT” was 1.83.
The value for “CGACATGTCCCGCTTCTTTCATTATTCCGTTAGCACCTGTTTTGCTATATACATTTACCTTTTAAGAGGAGGAAT” was 1.18; that for “CGACATGTCCCGCTTCTTTCATTATTCCGTTAGCAGCTGTTTTGCTATATACATTTACCTTTTAAGAGGAGGAAT” was 1.16.
The same measure for “CGACATGTCCCGCTTCTTTCATTATTCCGTTAGCATCTGTTTTGCTATATACATTTACCTTTTAAGAGGAGGAAT”: 1.34; for “CGACATGTCCCGCTTCTTTCATTATTCCGTTAGCCACTGTTTTGCTATATACATTTACCTTTTAAGAGGAGGAAT”: 0.595; for “CGACATGTCCCGCTTCTTTCATTATTCCGTTAGCGACTGTTTTGCTATATACATTTACCTTTTAAGAGGAGGAAT”: 0.759.
For “CGACATGTCCCGCTTCTTTCATTATTCCGTTAGCTACTGTTTTGCTATATACATTTACCTTTTAAGAGGAGGAAT”, the “cleaved RNA product abundance” value was 0.764.
As for “CGACATGTCCCGCTTCTTTCATTATTCCGTTAGGAACTGTTTTGCTATATACATTTACCTTTTAAGAGGAGGAAT”, the “cleaved RNA product abundance” value stood at 0.44.
The value for “CGACATGTCCCGCTTCTTTCATTATTCCGTTAGTAACTGTTTTGCTATATACATTTACCTTTTAAGAGGAGGAAT” was 0.651; that for “CGACATGTCCCGCTTCTTTCATTATTCCGTTATCAACTGTTTTGATATATACATTTACCTTTTAAGAGGAGGAAT” was 0.385; that for “CGACATGTCCCGCTTCTTTCATTATTCCGTTATCAACTGTTTTGCTATACACATTTACCTTTTAAGAGGAGGAAT” was 0.188.
“CGACATGTCCCGCTTCTTTCATTATTCCGTTATCAACTGTTTTGCTATATACATTTACCTTTTAAGAGGAGGAAT”: the “cleaved RNA product abundance” value worked out at 0.265.
With “CGACATGTCCCGCTTCTTTCATTATTCCGTTCGCAACTGTTTTGCTATATACATTTACCTTTTAAGAGGAGGAAT”, the “cleaved RNA product abundance” value is 0.283.
The same measure for “CGACATGTCCCGCTTCTTTCATTATTCCGTTGGCAACTGTTTTGCTATATACATTTACCTTTTAAGAGGAGGAAT”: 0.851; for “CGACATGTCCCGCTTCTTTCATTATTCCGTTTGCAACTGTTTTGCTATATACATTTACCATTTAAGAGGAGGAAT”: 0.356; for “CGACATGTCCCGCTTCTTTCATTATTCCGTTTGCAACTGTTTTGCTATATACATTTACCTTTTAAGAGGAGGAAT”: 0.543.
The value for “CGACATGTCCCGCTTCTTTCATTATTCCGTTTTCAACTGTTTTGCTATATACATTTACCTTTTAAGAGGAGGAAT” was 0.361; that for “CGACATGTCCCGCTTCTTTCATTATTCCTTAAACAACTGTTTTGTAATATACATTATACCTTTAAGAGGAGGAAT” was 0.242; that for “CGACATGTCCCGCTTCTTTCATTATTCCTTTACCAACAGTTTTGCTATATACATTTACCTTTTAAGAGGAGGAAT” was 0.112.
The value for “CGACATGTCCCGCTTCTTTCATTATTCCTTTACCAACTTTTTTGCTATATATATATACCTTTTAAGAGGAGGAAT” was 0.182; that for “CGACATGTCCCGCTTCTTTCATTATTCCTTTAGCAACTGTTTTGATATATACATTTACCTTTTAAGAGGAGGAAT” was 0.465; that for “CGACATGTCCCGCTTCTTTCATTATTCCTTTAGCAACTGTTTTGCTATATACATTTACCTTTTAAGAGGAGGAAT” was 1.04.
“CGACATGTCCCGCTTCTTTCATTATTCGGTTAGCAACTGTTTTGCTATATACATTTACCTTTTAAGAGGAGGAAT”: the “cleaved RNA product abundance” value was 1.73.
Turning to “CGACATGTCCCGCTTCTTTCATTATTCTGTTAGCAACTGTTTAGCTATATACATTTACCTTTTAAGAGGAGGAAT”, the “cleaved RNA product abundance” value was 0.759.
The same measure for “CGACATGTCCCGCTTCTTTCATTATTCTGTTAGCAACTGTTTTGCTATAAACATTTACCTTTTAAGAGGAGGAAT”: 0.834; for “CGACATGTCCCGCTTCTTTCATTATTCTGTTAGCAACTGTTTTGCTATATACAGTTACCTTTTAAGAGGAGGAAT”: 0.717.
The value for “CGACATGTCCCGCTTCTTTCATTATTCTGTTAGCAACTGTTTTGCTATATACATTTACCTTTTAAGAGGAGGAAT” was 1.94; that for “CGACATGTCCCGCTTCTTTCATTATTGCGTTAGCAACTGTTTTGCTATATACATTTACCTTTTAAGAGGAGGAAT” was 1.54.
The value for “CGACATGTCCCGCTTCTTTCATTATTTCGTTAGCAACTGTTTTGCTATATACATTTACCTTTTAAGAGGAGGAAT” was 1.59.
